From patent publication US5622932A (Eli Lilly and Company, priority 1995, dated 1997)

Key:
IGF-1 receptor = target: T1, IGF-1 receptor (Homo sapiens, UniProt P08069); assay: IGF-1 radioreceptor assay (displacement of [125I] ligand from human placental membranes); format: binding; conditions: relative to BCAD (IGF-1) = 100; human placental membrane, 24 hours at 4° C., from EC50 values
T1 construct: 30-50 μg of human placental membrane protein was incubated; from tissue; host or cells: human placental membranes
Experimental: (§1) 67:194-197. Briefly, 30-50 μg of human placental membrane protein was incubated with approximately 10 femtomoles of [^125 I] ligand in a final volume of 500 μl of 100 mM HEPES, pH 7.8, 120 mM NaCl, 5 mM KCl, 1.2 mM MgSO4, 8 mM glucose and 0.25% BSA for 24 hours at 4° C. Membranes were collected on glass fiber filters pre-treated with 0.1% polyethyleneimine by using a cell harvester (Skatron, Lier, Norway). Binding data were analyzed by fitting displacement curves to a four parameter model employing Prefit/Allfit® software for the determination of EC50 values.

insulin receptor = target: T2, insulin receptor (Homo sapiens, UniProt P06213); assay: Insulin radioreceptor assay (displacement of [125I] ligand from human placental membranes); format: binding; conditions: relative to b,a (insulin) = 100; human placental membrane, 24 hours at 4° C., from EC50 values
T2 construct: 30-50 μg of human placental membrane protein was incubated; from tissue; host or cells: human placental membranes
Experimental: as §1

For insulin [b,a (insulin)], the “% IGF-1 POTENCY” value (IGF-1 receptor) was 0.37%.
In the case of IGF-1 [BCAD (IGF-1)], the “% INSULIN POTENCY” value (insulin receptor) is reported as 1.2%.
In the case of proinsulin [bca (proinsulin)], the “% IGF-1 POTENCY” value (IGF-1 receptor) is reported as under 0.1%.
